Assay results: publication PMC11969024, “Development of chemokine network inhibitors using combinatorial saturation mutagenesis” (Communications Biology, 2025)

B1: peptide HD2 (from tick evasin EVA4) / CCL8 (biotinylated, synthetic) (parent)
chain 1: EEDDYTAYAPLTCYFT
chain 2: QPDSVSIPITCCFNVINRKIPIQRLESYTRITNIQCPKEAVIFKTKRGKEVCADPKERWVRDSMKHLDQIFQNLKP
B2: peptide HD2 (from tick evasin EVA4) / CCL4 (biotinylated, synthetic) (parent)
chain 1: EEDDYTAYAPLTCYFT
chain 2: APMGSDPPTACCFSYTARKLPRNFVVDYYETSSLCSQPAVVFQTKRSKQVCADPSESWVQEYVYDLELN
B3: peptide HD2 (from tick evasin EVA4) / CXCL11 (biotinylated, synthetic) (parent)
chain 1: EEDDYTAYAPLTCYFT
chain 2: FPMFKRGRCLCIGPGVKAVKVADIEKASIMYPSNNCDKIEVIITLKENKGQRCLNPKSKQARLIIKKVERKNF
B4: peptide HD2 (from tick evasin EVA4) / CCL18 (biotinylated, synthetic) (parent)
chain 1: EEDDYTAYAPLTCYFT
chain 2: AQVGTNKELCCLVYTSWQIPQKFIVDYSETSPQCPKPGVILLTKRGRQICADPNKKWVQKYISDLKLNA
B5: peptide HD2 (from tick evasin EVA4) / CXCL14 (biotinylated, synthetic) (parent)
chain 1: EEDDYTAYAPLTCYFT
chain 2: SKCKCSRKGPKIRYSDVKKLEMKPKYPHCEEKMVIITTKSVSRYRGQEHCLHPKLQSTKRFIKWYNAWNEKRRVYEE

Variants of: B1
Details: with CCL8 (biotinylated, synthetic); scale: log2

Variant | enrichment
chain 1 C13P | -9.12
chain 1 E2C | -9.53
chain 1 P10K | -6.48
chain 1 P10V | -9.9
chain 1 P10M | -8.02
chain 1 P10H | -7.47
chain 1 P10F | -8.93
chain 1 P10I | -7.96
chain 1 Y8K | -5.59
chain 1 Y8E | -5.7
chain 1 Y8Q | -5.88
chain 1 Y8P | -7.38
chain 1 Y8G | -8.23
chain 1 A9P | -7.32
chain 1 Y5R | -6.57
chain 1 Y5Q | -4.88
chain 1 Y5K | -5.12
chain 1 L11P | -7.62

Variants of: B2
Details: with CCL4 (biotinylated, synthetic); scale: log2

Variant | enrichment
chain 1 C13H | -8.22
chain 1 C13R | -10.1
chain 1 Y8C | -9.25
chain 1 Y8M | -8.06
chain 1 Y8R | -7.75
chain 1 Y8G | -8.28
chain 1 Y8Q | -5.93
chain 1 Y8K | -5.64
chain 1 E2C | -9.58
chain 1 D4C | -8.81
chain 1 P10N | -7.59
chain 1 P10M | -8.07
chain 1 P10I | -8.01
chain 1 P10R | -8.65
chain 1 P10K | -6.53
chain 1 P10H | -7.52
chain 1 Y5Q | -4.93
chain 1 Y5N | -7.28
chain 1 Y5K | -5.17
chain 1 Y5A | -6.64
chain 1 Y5G | -6.68
chain 1 A9C | -9.66
chain 1 A9D | -7.8
chain 1 E1C | -9.32
chain 1 D3C | -9.47
chain 1 D3K | -4.93
chain 1 T6C | -10.7

Variants of: B3
Details: with CXCL11 (biotinylated, synthetic); scale: log2

Variant | enrichment
chain 1 F15N | -3.87
chain 1 E1R | -5.11
chain 1 E1K | -3.21
chain 1 E1C | -6.89
chain 1 T12K | -4.72
chain 1 T12G | -7.44
chain 1 D4K | -4.01
chain 1 D4A | -5.22
chain 1 D4E | -3.08
chain 1 D4G | -3.36
chain 1 D4H | -4.91
chain 1 D4C | -6.38
chain 1 D4T | -5.01
chain 1 D4R | -4.23
chain 1 D4N | -5.1
chain 1 Y8K | -3.21
chain 1 Y8C | -6.82
chain 1 Y8R | -5.32
chain 1 Y8Q | -3.5
chain 1 Y8E | -3.32
chain 1 Y8P | -5

Variant | enrichment
chain 1 L11Q | -3.39
chain 1 L11N | -5.58
chain 1 L11E | -5.3
chain 1 L11G | -7.39
chain 1 P10Q | -3.53
chain 1 P10K | -4.1
chain 1 P10R | -6.22
chain 1 P10F | -6.55
chain 1 P10C | -6.86
chain 1 P10Y | -5.7
chain 1 Y14D | -4.67
chain 1 Y14N | -4.04
chain 1 Y14E | -5.9
chain 1 Y14I | -4.41
chain 1 Y14P | -5.99
chain 1 Y14S | -6.81
chain 1 Y14K | -5.3
chain 1 Y14R | -7.23
chain 1 Y14Q | -5.19
chain 1 Y14M | -6.11
chain 1 A7C | -6.98

Variant | enrichment
chain 1 D3R | -4.59
chain 1 D3H | -4.1
chain 1 D3V | -6.48
chain 1 D3E | -1.84
chain 1 D3M | -4.98
chain 1 D3Q | -2.12
chain 1 D3C | -7.03
chain 1 D3A | -4.17
chain 1 D3K | -2.5
chain 1 D3P | -4.65
chain 1 E2C | -7.15
chain 1 E2R | -4.27
chain 1 E2Q | -2.04
chain 1 E2P | -4.19
chain 1 Y5M | -4.78
chain 1 Y5P | -3.87
chain 1 Y5V | -6.41
chain 1 Y5E | -0.621
chain 1 Y5Q | -2.5
chain 1 Y5C | -6.3
chain 1 Y5R | -4.19

Variant | enrichment
chain 1 Y5D | -4.19
chain 1 Y5G | -4.25
chain 1 Y5S | -6.24
chain 1 Y5K | -2.74
chain 1 Y5T | -4.8
chain 1 Y5A | -4.21
chain 1 T16R | -6.32
chain 1 T16H | -4.21
chain 1 C13K | -6.26
chain 1 C13R | -7.69
chain 1 C13I | -5.31
chain 1 C13W | -6.78
chain 1 C13G | -7.57
chain 1 C13Y | -5.88
chain 1 C13D | -6.29
chain 1 A9C | -7.23
chain 1 A9D | -5.37
chain 1 A9K | -3.76

Variants of: B4
Details: with CCL18 (biotinylated, synthetic); scale: log2

Variant | enrichment
chain 1 Y8R | -8.38
chain 1 Y8E | -6.38
chain 1 Y8K | -6.27
chain 1 Y5K | -5.8
chain 1 P10M | -8.7
chain 1 P10I | -8.64
chain 1 P10H | -8.15
chain 1 P10T | -8.06
chain 1 P10S | -9.39
chain 1 P10C | -9.92
chain 1 P10R | -9.28
chain 1 P10K | -7.16
chain 1 P10E | -8.1
chain 1 Y14P | -9.05
chain 1 E1C | -9.95
chain 1 D3C | -10.1
chain 1 A9D | -8.43
chain 1 A7C | -10
chain 1 T6C | -11.3
chain 1 C13G | -10.6
chain 1 C13A | -10.8
chain 1 C13K | -9.32
chain 1 C13S | -9.93
chain 1 C13E | -10.1
chain 1 C13D | -9.35
chain 1 C13H | -8.85
chain 1 T16C | -7.88
chain 1 D4C | -9.44

Variants of: B5
Details: with CXCL14 (biotinylated, synthetic); scale: log2

Variant | enrichment
chain 1 P10I | -6.7
chain 1 P10K | -5.23
chain 1 P10R | -7.34
chain 1 P10T | -6.13
chain 1 P10Y | -6.83
chain 1 P10N | -6.28
chain 1 P10C | -7.98
chain 1 Y5D | -5.31
chain 1 Y5E | -1.74
chain 1 Y5P | -4.99
chain 1 Y5R | -5.31
chain 1 Y5Q | -3.62
chain 1 Y5T | -5.93
